Measurements as given in patent US20240117056A1 (IBIO, published 2024).
Positions count from the first letter of the chain named.

B1: SD-127612-afuc (antibody, V domains shown)
VH: QVQLVQSGAEVKKPGASVKVSCKASGYTFTSYDINWVRQAPGQRLEWMGWIFPGDGTSKYNEKFKGRVTITRDTSASTAYMELSSLRSEDTAVYYCARRLGSHWGQGTLVTVSS
VL: DIVLTQSPDSLAVSPGERATISCKASQSVDSDGDSYMNWYQQKPGQPPKLLIYGASNLESGVPDRFSGSGSGTDFTLTISRVEAEDVAVYYCQQSHEYPFTFGGGTKLEIK
notes: afucosylated (FUT8 knock-out CHO)
B2: SD-649072-afuc (antibody, V domains shown)
VH: B1 VH with S102T, H103V
VL: B1 VL with D9A, E17Q, S22T, D64A, S80N, R81P, E85N, V87T, V89N, G104Q
notes: as for B1

How the values were obtained:
[1] = molecular target: T1, human EGFR, purified recombinant protein (Acro Biosystems Cat #EGR-H5222) (human, UniProt P00533 25-645); assay: SPR (Carterra LSA), antibody captured on anti-human IgG, EGFR1 injected in a 5-fold series from 500 nM
T1 construct: Bought protein; also called EGFR1; full length human EGFR1

[2] = molecular target: T2, human EGFRvIII overexpressed on cells (F98npEGFRvIII, U87MG-EGFRvIII, FaDu-EGFRvIII) (human, UniProt P00533 25-1210); assay: cell-based or functional assay
[3] = molecular target: T3, wild type human EGFR1 on cells (F98 EGFR1; wild type U87MG; wild type FaDu) (human, UniProt P00533 25-1210); assay: flow cytometry on wild type U87MG cells, anti-human IgG Fc Alexa Fluor 647, MFI
T3 construct: whole, on cells

[4] = molecular target: T2, human EGFRvIII overexpressed on cells …; assay: cell-based or functional assay; remark: listed apart in the source
[5] = molecular target: T4, human EGFRvIII, purified recombinant protein (Acro Biosystems Cat #EGI-H52H4) (human, UniProt P00533 25-645); assay: SPR (Carterra LSA), antibody captured on anti-human IgG, antigen injected, 1:1 Langmuir fit;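 also: EGFRvIII injected at five concentrations, fivefold serial dilution starting 500 nM, 5 min association then 15 min dissociation, double-referenced against interspot and buffer blank signals, global kinetic fit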
T4 construct: Bought protein; the deletion must be applied; also called truncated human EGFRvIII; huEGFRvIII

[6] = molecular target: T4, human EGFRvIII, purified recombinant …; assay: ELISA, antigen coated at 1 ug/mL, anti-human IgG-HRP, n=3
[7] = molecular target: T2, human EGFRvIII overexpressed on cells …; assay: flow cytometry, U87MG-EGFRvIII cells, n=3
[8] = molecular target: T2, human EGFRvIII overexpressed on cells …; assay: flow cytometry, FaDu-EGFRvIII cells, n=3
[9] = molecular target: T1, human EGFR, purified recombinant …; assay: ELISA, plate coated with human EGFR1, anti-human IgG-HRP, OD450

Row | Binder | binding result [1] | ADCC EC50 (nM), U87MG-EGFRvIII cells with PBMC [2] | binding result [3] | ADCC EC50 (nM), FaDu-EGFRvIII cells with PBMC [4] | Kd [5] | koff [5] | kon [5] | EC50 [6] | EC50 [7] | EC50 [8] | binding result [9]
1 | B1 | no binding | 0.0047 nM | no binding | 0.0051 nM | 57 nM | 0.0024 s⁻¹ | 42000 M⁻¹ s⁻¹ | 0.156 nM | 6.05 nM | 5.27 nM | –
2 | B2 | – | 0.0066 nM | no binding | 0.0033 nM | 33 nM | 0.0017 s⁻¹ | 51000 M⁻¹ s⁻¹ | 0.129 nM | 4.33 nM | 3.86 nM | no binding
